Experimental data published in US12570711B2, “Platforms for co-stimulation, novel car designs and other enhancements for adoptive cellular therapy” (Angeles Therapeutics, Inc., priority 2017, dated 2026).

Target: T1, CD19 (Homo sapiens, UniProt P15391)
T1 construct: endogenous in cells; host or cells: RAJI cells in vitro
T1 sequence (P15391 20-556): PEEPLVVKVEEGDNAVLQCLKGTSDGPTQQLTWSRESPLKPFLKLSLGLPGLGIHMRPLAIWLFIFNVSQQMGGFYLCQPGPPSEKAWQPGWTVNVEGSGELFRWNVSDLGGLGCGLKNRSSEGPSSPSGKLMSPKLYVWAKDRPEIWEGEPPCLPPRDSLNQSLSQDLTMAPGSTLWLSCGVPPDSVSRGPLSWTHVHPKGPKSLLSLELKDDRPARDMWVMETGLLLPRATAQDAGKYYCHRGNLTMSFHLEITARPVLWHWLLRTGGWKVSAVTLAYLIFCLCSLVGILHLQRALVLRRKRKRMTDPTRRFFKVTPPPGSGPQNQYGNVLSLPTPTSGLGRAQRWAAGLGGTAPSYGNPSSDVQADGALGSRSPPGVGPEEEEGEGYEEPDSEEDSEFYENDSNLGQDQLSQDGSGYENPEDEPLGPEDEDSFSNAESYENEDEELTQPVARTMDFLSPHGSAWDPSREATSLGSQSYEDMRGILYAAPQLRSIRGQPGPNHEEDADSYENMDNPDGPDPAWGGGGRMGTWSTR
Test: Jurkat-NFAT-EGFP (J-N-G) reporter: EGFP induction upon co-culture with RAJI cells
Type: cell-based
Conditions: co-culture with CD19+ve RAJI cells, compared to wild-type EF1α promoter
Description: Jurkat cell line (clone E6-1) engineered with a NFAT-dependent EGFP (or GFP) reporter gene was a gift from Dr. Arthur Weiss at University of California San Francisco and have been described to study CAR-signaling ((Wu, C Y et al., Science 350:293-302, 2015). Jurkat cells were maintained in RPMI-1640 medium supplemented with 10% FBS, penicillin and streptomycin.
Use of strong viral promoters in adoptive cellular therapy applications carries the risk of activation of downstream oncogenes and development of cancer. As such, human Elongation Factor 1α (EF1α) promoter is frequently used in adoptive cellular therapy applications as it provides strong expression and is human in origin. A limitation of EF1α promoter, however, is its relatively large size. Although a mini-EF1α promoter has been described, it is much weaker as compared to the EF1α promoter. To determine whether an internal deletion in the EF1α promoter would allow shortening of its length while preserving its promoter strength, a SacII fragment was deleted from the EF1α promoter. […] The vectors also co-expressed EGFP and blasticidin resistance gene via 2A linkers. Lentiviruses were generated in 293FT cells and used to infect J-N-G cells.

B1: EF1α-D-SacII promoter: EF1α promoter from which an internal SacII fragment was deleted (nucleic acid)
DNA: GTGAGGCTCCGGTGCCCGTCAGTGGGCAGAGCGCACATCGCCCACAGTCCCCGAGAAGTTGGGGGGAGGGGTCGGCAATTGAACCGGTGCCTAGAGAAGGTGGCGCGGGGTAAACTGGGAAAGTGATGTCGTGTACTGGCTCCGCCTTTTTCCCGAGGGTGGGGGAGAACCGTATATAAGTGCAGTAGTCGCCGTGAACGTTCTTTTTCGCAACGGGTTTGCCGCCAGAACACAGGTAAGTGCCGTGTGTGGTTCCCGCGGGCGGCGACGGGGCCCGTGCGTCCCAGCGCACATGTTCGGCGAGGCGGGGCCTGCGAGCGCGGCCACCGAGAATCGGACGGGGGTAGTCTCAAGCTGGCCGGCCTGCTCTGGTGCCTGGCCTCGCGCCGCCGTGTATCGCCCCGCCCTGGGCGGCAAGGCTGGCCCGGTCGGCACCAGTTGCGTGAGCGGAAAGATGGCCGCTTCCCGGCCCTGCTGCAGGGAGCTCAAAATGGAGGACGCGGCGCTCGGGAGAGCGGGCGGGTGAGTCACCCACACAAAGGAAAAGGGCCTTTCCGTCCTCAGCCGTCGCTTCATGTGACTCCACGGAGTACCGGGCGCCGTCCAGGCACCTCGATTAGTTCTCGACCTTTTGGAGTACGTCGTCTTTAGGTTGGGGGGAGGGGTTTTATGCGATGGAGTTTCCCCACACTGAGTGGGTGGAGACTGAAGTTAGGCCAGCTTGGCACTTGATGTAATTCTCCTTGGAATTTGCCCTTTTTGAGTTTGGATCTTGGTTCATTCTCAAGCCTCAGACAGTGGTTCAAAGTTTTTTTCTTCCATTTCAGGTGTCGTGA
- induction of EGFP expression by FMC63-BBz CAR: Near equivalent inducton of EGFP expression
